Where two headings read alike, the source gives them in different places.
What was measured:
4H780-bH = target: T1, 4H780-bH; assay: two-hybrid library CCNG1;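 note: natural log of median RNA to DNA barcode read ratio; higher means stronger binding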
T1 chain: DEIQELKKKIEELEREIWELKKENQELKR

4H457-bH = target: T2, 4H457-bH; assay: two-hybrid library CCNG1;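 note: natural log of median RNA to DNA barcode read ratio; higher means stronger binding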
T2 chain: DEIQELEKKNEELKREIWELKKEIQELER

4H918-bH = target: T3, 4H918-bH; assay: two-hybrid library CCNG1;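 note: natural log of median RNA to DNA barcode read ratio; higher means stronger binding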
T3 chain: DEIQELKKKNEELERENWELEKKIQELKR

4H683-bH = target: T4, 4H683-bH; assay: two-hybrid library CCNG1;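 note: natural log of median RNA to DNA barcode read ratio; higher means stronger binding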
T4 chain: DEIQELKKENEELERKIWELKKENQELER

4H3926-bH = target: T5, 4H3926-bH; assay: two-hybrid library CCNG1;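 note: natural log of median RNA to DNA barcode read ratio; higher means stronger binding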
T5 chain: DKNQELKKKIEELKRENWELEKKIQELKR

4H968-bH = target: T6, 4H968-bH; assay: two-hybrid library CCNG1;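 note: natural log of median RNA to DNA barcode read ratio; higher means stronger binding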
T6 chain: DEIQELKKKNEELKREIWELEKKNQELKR

4H346-bH = target: T7, 4H346-bH; assay: two-hybrid library CCNG1
T7 chain: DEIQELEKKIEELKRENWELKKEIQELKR

4H4073-bH = target: T8, 4H4073-bH; assay: two-hybrid library CCNG1
T8 chain: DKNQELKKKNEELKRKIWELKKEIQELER

4H3427-bH = target: T9, 4H3427-bH; assay: two-hybrid library CCNG1
T9 chain: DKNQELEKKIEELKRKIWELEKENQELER

4H575-bH = target: T10, 4H575-bH; assay: two-hybrid library CCNG1
T10 chain: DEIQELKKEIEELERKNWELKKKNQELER

4H797-bH = target: T11, 4H797-bH; assay: two-hybrid library CCNG1
T11 chain: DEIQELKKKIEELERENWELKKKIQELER

4H953-bH = target: T12, 4H953-bH; assay: two-hybrid library CCNG1
T12 chain: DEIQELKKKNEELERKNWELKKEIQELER

4H855-bH = target: T13, 4H855-bH; assay: two-hybrid library CCNG1
T13 chain: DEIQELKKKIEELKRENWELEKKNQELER

4H754-bH = target: T14, 4H754-bH; assay: two-hybrid library CCNG1
T14 chain: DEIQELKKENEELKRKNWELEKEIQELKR

4H3112-bH = target: T15, 4H3112-bH; assay: two-hybrid library CCNG1
T15 chain: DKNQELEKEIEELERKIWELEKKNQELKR

4H953-bA = target: T16, 4H953-bA; assay: two-hybrid library CCNG1
T16 chain: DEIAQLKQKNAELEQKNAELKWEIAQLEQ

GCN2_T = assay: two-hybrid library CCmax
4H775-AA = target: T17, 4H775-AA; assay: two-hybrid library CCmax; conditions: mean of both orientations
T17 chain: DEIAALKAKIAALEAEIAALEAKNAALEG

4H816-AA = target: T18, 4H816-AA; assay: two-hybrid library CCmax; conditions: mean of both orientations
T18 chain: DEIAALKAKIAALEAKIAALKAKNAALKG

4H3922-AA = target: T19, 4H3922-AA; assay: two-hybrid library CCmax; conditions: mean of both orientations
T19 chain: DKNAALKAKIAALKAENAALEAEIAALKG

4H87-AA = target: T20, 4H87-AA; assay: two-hybrid library CCmax; conditions: mean of both orientations
T20 chain: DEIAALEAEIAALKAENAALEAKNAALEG

4H481-AA = target: T21, 4H481-AA; assay: two-hybrid library CCmax; conditions: mean of both orientations
T21 chain: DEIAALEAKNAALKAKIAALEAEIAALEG

4H55-AA = target: T22, 4H55-AA; assay: two-hybrid library CCmax; conditions: mean of both orientations
T22 chain: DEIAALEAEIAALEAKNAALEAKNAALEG

4H_APH = target: T23, 4H_APH; assay: two-hybrid library CCmax; conditions: mean of both orientations
T23 chain: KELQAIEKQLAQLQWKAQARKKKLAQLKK

4H4033-AA = target: T24, 4H4033-AA; assay: two-hybrid library CCmax; conditions: mean of both orientations
T24 chain: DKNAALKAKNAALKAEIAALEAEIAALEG

4H510-AA = target: T25, 4H510-AA; assay: two-hybrid library CCmax; conditions: mean of both orientations
T25 chain: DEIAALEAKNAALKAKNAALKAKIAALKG

4H4038-AA = target: T26, 4H4038-AA; assay: two-hybrid library CCmax; conditions: mean of both orientations
T26 chain: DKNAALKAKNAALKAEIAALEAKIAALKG

O11-AA = target: T27, O11-AA; assay: two-hybrid library CCmax; conditions: mean of both orientations
T27 chain: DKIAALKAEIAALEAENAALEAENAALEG

4H662-AA = target: T28, 4H662-AA; assay: two-hybrid library CCmax; conditions: mean of both orientations
T28 chain: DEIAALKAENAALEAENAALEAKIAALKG

4H3940-AA = target: T29, 4H3940-AA; assay: two-hybrid library CCmax; conditions: mean of both orientations
T29 chain: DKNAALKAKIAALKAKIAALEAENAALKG

O13-AA = target: T30, O13-AA; assay: two-hybrid library CCmax; conditions: mean of both orientations
T30 chain: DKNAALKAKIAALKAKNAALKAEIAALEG

4H43-AA = target: T31, 4H43-AA; assay: two-hybrid library CCmax; conditions: mean of both orientations
T31 chain: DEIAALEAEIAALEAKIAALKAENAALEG

O14-AA = target: T32, O14-AA; assay: two-hybrid library CCmax; conditions: mean of both orientations
T32 chain: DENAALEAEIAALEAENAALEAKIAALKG

4H_BCR = target: T33, 4H_BCR; assay: two-hybrid library CCmax; conditions: mean of both orientations
T33 chain: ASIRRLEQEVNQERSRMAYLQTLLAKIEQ

4H369-AA = target: T34, 4H369-AA; assay: two-hybrid library CCmax; conditions: mean of both orientations
T34 chain: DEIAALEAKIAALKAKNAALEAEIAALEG

4H390-AA = target: T35, 4H390-AA; assay: two-hybrid library CCmax; conditions: mean of both orientations
T35 chain: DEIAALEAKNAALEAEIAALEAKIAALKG

4H3905-AA = target: T36, 4H3905-AA; assay: two-hybrid library CCmax; conditions: mean of both orientations
T36 chain: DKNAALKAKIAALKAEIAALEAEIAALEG

4H384-AA = target: T37, 4H384-AA; assay: two-hybrid library CCmax; conditions: mean of both orientations
T37 chain: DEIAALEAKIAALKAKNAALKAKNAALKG

4H3664-AA = target: T38, 4H3664-AA; assay: two-hybrid library CCmax; conditions: mean of both orientations
T38 chain: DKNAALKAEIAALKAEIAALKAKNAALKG

4H3625-AA = target: T39, 4H3625-AA; assay: two-hybrid library CCmax
T39 chain: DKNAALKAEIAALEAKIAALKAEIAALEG

4H451-AA = target: T40, 4H451-AA; assay: two-hybrid library CCmax; conditions: mean of both orientations
T40 chain: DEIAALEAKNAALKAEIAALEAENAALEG

4H_GCN4 = assay: two-hybrid library CCmax; conditions: mean of both orientations
Chain of 4H_GCN4 (chain, as listed by the source): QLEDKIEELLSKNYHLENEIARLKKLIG

zCON9_B = target: T41, zCON9_B; assay: two-hybrid library CCmax
T41 chain: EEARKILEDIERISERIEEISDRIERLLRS

zCON9_D = target: T42, zCON9_D; assay: two-hybrid library CCmax
T42 chain: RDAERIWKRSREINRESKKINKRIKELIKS

4H850-bH = target: T43, 4H850-bH; assay: two-hybrid library CCNG1
T43 chain: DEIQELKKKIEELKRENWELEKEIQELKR

4H908-bH = target: T44, 4H908-bH; assay: two-hybrid library CCNG1
T44 chain: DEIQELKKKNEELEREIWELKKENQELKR

4H3855-bH = target: T45, 4H3855-bH; assay: two-hybrid library CCNG1
T45 chain: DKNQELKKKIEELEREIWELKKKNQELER

4H883-bH = target: T46, 4H883-bH; assay: two-hybrid library CCNG1
T46 chain: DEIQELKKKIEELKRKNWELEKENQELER

4H4001-bH = target: T47, 4H4001-bH; assay: two-hybrid library CCNG1
T47 chain: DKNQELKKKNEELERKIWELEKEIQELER

4H568-bH = target: T48, 4H568-bH; assay: two-hybrid library CCNG1
T48 chain: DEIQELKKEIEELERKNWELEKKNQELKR

4H3782-bH = target: T49, 4H3782-bH; assay: two-hybrid library CCNG1
T49 chain: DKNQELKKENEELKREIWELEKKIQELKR

4H687-bH = target: T50, 4H687-bH; assay: two-hybrid library CCNG1
T50 chain: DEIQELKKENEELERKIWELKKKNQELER

4H72-bH = target: T51, 4H72-bH; assay: two-hybrid library CCNG1
T51 chain: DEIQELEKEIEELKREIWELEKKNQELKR

4H454-bH = target: T52, 4H454-bH; assay: two-hybrid library CCNG1
T52 chain: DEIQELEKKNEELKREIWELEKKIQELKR

4H967-bH = target: T53, 4H967-bH; assay: two-hybrid library CCNG1
T53 chain: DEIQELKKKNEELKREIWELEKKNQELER

4H780-bN = target: T54, 4H780-bN; assay: two-hybrid library CCNG1
T54 chain: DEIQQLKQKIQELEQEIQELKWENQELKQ

4H717-bH = target: T55, 4H717-bH; assay: two-hybrid library CCNG1
T55 chain: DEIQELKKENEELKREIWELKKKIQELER

4H607-bH = target: T56, 4H607-bH; assay: two-hybrid library CCNG1
T56 chain: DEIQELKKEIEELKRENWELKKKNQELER

Binder: DKIQELKKKNEELKREIWELEKEIQELKR [4H3010-bH]
- interaction score (4H780-bH): -0.427
- interaction score (4H457-bH): 0.658
- interaction score (4H918-bH): -2.71
- interaction score (4H683-bH): 0.161
- interaction score (4H3926-bH): 0.68
- interaction score (4H968-bH): 0.0625
- interaction score (4H346-bH): -0.345
- interaction score (4H4073-bH): 0.581
- interaction score (4H3427-bH): 0.496
- interaction score (4H575-bH): -2.51
- interaction score (4H797-bH): -1.11
- interaction score (4H953-bH): 0.505
- interaction score (4H855-bH): -0.95
- interaction score (4H754-bH): -1.06
- interaction score (4H3112-bH): -1.68
- interaction score (4H953-bA): -0.817

Binder: DKNAALKAEIAALEAKIAALKAEIAALEG [4H3625-AA]
- interaction score (GCN2_T): -0.674
- interaction score (4H775-AA): 0.881
- interaction score (4H816-AA): 1.38
- interaction score (4H3922-AA): 0.185
- interaction score (4H87-AA): -0.904
- interaction score (4H481-AA): -0.502
- interaction score (4H55-AA): -1.29
- interaction score (4H_APH): -1.59
- interaction score (4H4033-AA): -0.401
- interaction score (4H510-AA): -1.93
- interaction score (4H4038-AA): 1.61
- interaction score (O11-AA): -1.53
- interaction score (4H662-AA): -1.3
- interaction score (4H3940-AA): -0.199
- interaction score (O13-AA): -1.47
- interaction score (4H43-AA): 1.85
- interaction score (O14-AA): 1.44
- interaction score (4H_BCR): -1.17
- interaction score (4H369-AA): -0.703
- interaction score (4H390-AA): 1.54
- interaction score (4H3905-AA): 2.29
- interaction score (4H384-AA): -1.24
- interaction score (4H3664-AA): -0.0768
- interaction score (4H3625-AA): 2.27
- interaction score (4H451-AA): -1.64
- interaction score (4H_GCN4): -0.702

Binder: PKKEAEELAEESEELHDRSEKLHERAEQ [zCON9_A]
- interaction score (zCON9_B): -2.01
- interaction score (zCON9_D): -2.12

Binder: EEARKILEDIERISERIEEISDRIERLLRS [zCON9_B]
- interaction score (zCON9_B): 2
- interaction score (zCON9_D; mean of both orientations): -1.44

Binder: DEIQELEKKIEELKRENWELKKEIQELKR [4H346-bH]
- interaction score (4H780-bH): 0.0507
- interaction score (4H457-bH): 0.311
- interaction score (4H918-bH): -3.17
- interaction score (4H683-bH): -1.17
- interaction score (4H3926-bH): 1.28
- interaction score (4H968-bH): -0.466
- interaction score (4H346-bH): 0.99
- interaction score (4H4073-bH): -0.154
- interaction score (4H575-bH): -0.18
- interaction score (4H797-bH): 0.329
- interaction score (4H953-bH): 0.155
- interaction score (4H855-bH): 0.532
- interaction score (4H850-bH): -3.53
- interaction score (4H754-bH): -0.0538

Binder: DKNQELEKKIEELKRKIWELEKENQELER [4H3427-bH]
- interaction score (4H908-bH): -0.797
- interaction score (4H3855-bH): 0.0459
- interaction score (4H780-bH): 0.188
- interaction score (4H883-bH): -1.42
- interaction score (4H4001-bH): 0.717
- interaction score (4H568-bH): -1.66
- interaction score (4H457-bH): -0.153
- interaction score (4H3782-bH): -0.106
- interaction score (4H918-bH): -0.345
- interaction score (4H683-bH): -0.937
- interaction score (4H3926-bH): -0.169
- interaction score (4H687-bH): -0.309
- interaction score (4H968-bH): -0.828
- interaction score (4H72-bH): -0.0186
- interaction score (4H346-bH): -1.08
- interaction score (4H454-bH): -0.546
- interaction score (4H967-bH): -1.41
- interaction score (4H4073-bH): 0.194
- interaction score (4H780-bN): -0.425
- interaction score (4H3427-bH): 1.13
- interaction score (4H575-bH): 1.53
- interaction score (4H797-bH): -0.726
- interaction score (4H953-bH): -2.3
- interaction score (4H855-bH): -0.0661
- interaction score (4H754-bH): -0.851
- interaction score (4H717-bH): -0.417
- interaction score (4H607-bH): -1.37

Source: PMC10397247
